Test results from patent publication US20250027068A1.
Changes are numbered by the printed parent chain.

B1: VRT-58 (Fc fusion)
chain: VTSVWTKGVTPPTDFIKGEDVFHAPYKAGQGWYDITKTFNGKDNLLCGAATAGNMLHWWFDQNKEYIEAYLKKHPEKQKIIFNNQELFDLKAAINTKGSQKNSELFNYFRDKAFPNLSARRLGVFPDLVLDMFINGYYLNVTKTQTTDVNRTYQEKDKRGGIFDAVFTRGVQSKLLTSRHDLKNKGLKEISDLIKQELTEGKALGLSHTYANVRINHVINLWGADFDSDGNLKAIYVTDSDSNASIGMKKYFVGVNSAGKVAISAKEIKEDNIGAQVLGLFTLSTGQDIWNQTNDKTHTCPPCPAPEAAGAPSVFLFPPKPKDTLMISRTPEVTCVVVDVSHEDPEVKFNWYVDGVEVHNAKTKPREEQQNSTYRVVSVLTVLHQDWLNGKEYKCKVSNKALKAPIEKTISKAKGQPREPQVYTLPPSRDELTKNQVSLTCLVKGFYPSDIAVEWESNGQPENNYKTTPPVLDSDGSFFLYSKLTVDKSRWQQGNVFSCSVMHEALHNHYTQKSLSLSPG
B2: VRT-59 (Fc fusion)
chain: B1 chain with T13A, I16T, K17Q, K27V, G29N
B3: VRT-50 (Fc fusion)
chain: VTSVWTKGVTPPTDFIYGEDVLHAPYKAGQGWYDITKTFNGKDNLLCGAATAGNMLHWWFDQNKEQIENYLKKHPEKQKIIFNNQELFDLKAAIDTKDSQLDSKLFEYFKEKAFPYLSTKHLGVFPDHVIDMFINGYRLSLTNHGPTPVKRGSKDKRGGIFDAVFTRGVQSKLLTNRHDFKEKTLKEISDLIKQELTEGKALGISHTYANVRINHVINLWGADFDAEGNLEAIYVTDSDTNASIGMKKYFVGVNSNGKVAISAKEIEEDNIGAQVLGLFTLSTGQDIWNQTNDKTHTCPPCPAPEAAGAPSVFLFPPKPKDTLMISRTPEVTCVVVDVSHEDPEVKFNWYVDGVEVHNAKTKPREEQQNSTYRVVSVLTVLHQDWLNGKEYKCKVSNKALKAPIEKTISKAKGQPREPQVYTLPPSRDELTKNQVSLTCLVKGFYPSDIAVEWESNGQPENNYKTTPPVLDSDGSFFLYSKLTVDKSRWQQGNVFSCSVMHEALHNHYTQKSLSLSPG
B4: VRT-52 (Fc fusion)
chain: B3 chain with T38A, N40D, K42G, L101T, D102N, K104E, E107N, F180L, E182N
B5: VRT-53 (Fc fusion)
chain: B3 chain with D14N, I16T, K27V, G29N, F180L, E182N
B6: VRT-54 (Fc fusion)
chain: VTSVWTKGVTPPTDFIKGEDVFHAPYKAGQGWYDITKTFNGKDDLLCGAATAGNMLHWWFDQNKEYIEAYLKKHPEKQKIMFGDQELLDVRKAINTKGSQKNSELFNYFRDKAFPNLSARRLGVMPDLVLDMFINGYYLNVTKTQTTDVNRTYQEKDKRGGIFDAVFTRGDQSKLLTSRHDFKEKGLKEISDLIKQELTEGKALGLSHTYANVRINHVINLWGADFDSDGNLKAIYVTDSDSNASIGMKKYFVGVNSAGKVAISAKEIKEDNIGAQVLGLFTLSTGQDIWNQTNDKTHTCPPCPAPEAAGAPSVFLFPPKPKDTLMISRTPEVTCVVVDVSHEDPEVKFNWYVDGVEVHNAKTKPREEQQNSTYRVVSVLTVLHQDWLNGKEYKCKVSNKALKAPIEKTISKAKGQPREPQVYTLPPSRDELTKNQVSLTCLVKGFYPSDIAVEWESNGQPENNYKTTPPVLDSDGSFFLYSKLTVDKSRWQQGNVFSCSVMHEALHNHYTQKSLSLSPG
B7: VRT-57 (Fc fusion)
chain: B1 chain with L182F, N184E
B8: VRT-55 (Fc fusion)
chain: B6 chain with F182L, E184N
B9: VRT-56 (Fc fusion)
chain: B6 chain with T13A, I16T, K17Q, K27V, G29N, F182L, E184N
B10: VRT-49 (Fc fusion)
chain: VTSVWTKGVTPPTNFTYGEDVLHAPYVANQGWYDITKTFNGKDDLLCGAATAGNMLHWWFDQNKEQIENYLKKHPEKQKINFNGEQMFDVKEAIDTKDSQLDSKLFEYFKEKAFPYLSTKHLGVFPDHVIDMFINGYRLSLTNHGPTPVKRGSKDPRGGIFDAVFTRGDQSKLLTNRHDLKNKTLKEISDLIKQELTEGKALGISHTYANVRINHVINLWGADFDAEGNLEAIYVTDSDSNASIGMKKYFVGVNSNGKVAISAKEIEEDNIGAQVLGLFTLSTGQDIWNQTNDKTHTCPPCPAPEAAGAPSVFLFPPKPKDTLMISRTPEVTCVVVDVSHEDPEVKFNWYVDGVEVHNAKTKPREEQQNSTYRVVSVLTVLHQDWLNGKEYKCKVSNKALKAPIEKTISKAKGQPREPQVYTLPPSRDELTKNQVSLTCLVKGFYPSDIAVEWESNGQPENNYKTTPPVLDSDGSFFLYSKLTVDKSRWQQGNVFSCSVMHEALHNHYTQKSLSLSPG

Target: pooled human IgG (human)
Test: cell-based or functional assay

| Binder | Enzyme Activity Endpoint Assay, Fab′2 [ng/µL] | Enzyme Activity Endpoint Assay, Fc [ng/µL] | Enzyme Activity Endpoint Assay, IgG [ng/µL] | Enzyme Activity Endpoint Assay, scIgG [ng/µL] |
| --- | --- | --- | --- | --- |
| B1 | 0 | 191 | 527 | 236 |
| B2 | 0 | 157 | 726 | 107 |
| B3 | 8 | 226 | 295 | 360 |
| B4 | 6 | 213 | 238 | 311 |
| B5 | 0 | 209 | 326 | 339 |
| B6 | 0 | 129 | 672 | 150 |
| B7 | 0 | 97 | 903 | 27 |
| B8 | 0 | 120 | 734 | 109 |
| B9 | 0 | 200 | 742 | 240 |
| B10 | 135 | 291 | 157 | 131 |
